The target in assay [1] is T1, mouse PD-1 (mouse, UniProt Q02242 25-169, limits assumed).
T1 sequence (looked up): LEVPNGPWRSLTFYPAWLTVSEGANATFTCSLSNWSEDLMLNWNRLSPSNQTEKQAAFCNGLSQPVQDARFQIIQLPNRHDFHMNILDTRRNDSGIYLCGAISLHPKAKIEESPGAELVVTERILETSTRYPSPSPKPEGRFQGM
The assay is described as follows: assays not detailed.

For assay [2], the target named is T2, human PD-1 extracellular domain fused with human Fc tag (hPD-1-hFc) (human).
T2 construct: also called human PD-1-hFc
The experiment in a line: ELISA binding (summary table). The procedure:
(§1) ELISA binding analysis was conducted based on human PD-1-hFc Protein. 96-well plates (Costar, Cat No:9018) were coated with 100 μL of 2 μg/ml PD1-hFc (CrownBio) in coating buffer (PBS, Hyclone, Cat No:SH30256.01B) overnight at 4° C. The wells were aspirated and non-specific binding sites were blocked by adding 200 μL of blocking buffer with 1% (w/v) of bovine serum albumin (BSA, Roche, Cat No: 738328) and incubating for 1 hour at 37° C. After the plates are washed three times with wash buffer (PBS with 0.05%(v/v) Tween20 (Sigma, Cat No:P1379), 100 μL/well of a suitable dilutions of hybridoma supernatant in blocking buffer were added and incubated at room temperature for 1 hour. The plates were washed and incubated with 100 μL/well of Goat anti-Mouse IgG (H+L) (Thermo, Cat No: 31432) in blocking buffer for 60 min. After the plates were washed, 100 μL/well of substrate solution (TMB(eBioscience, Cat No:00-4201-56) was added and the plates were incubated for 2min at room temperature. 100 μL/well of stop solution (2N H2SO4) was added to stop the reaction. The colorimetric signals were developed and read at 450 nm using a Auto Plate SpectraMax Plus (Supplier: Molecular Devices; Model: MNR0643; Software: SoftMax Pro v5.4).
(§2) The purified hybridoma antibodies were characterized further based on ELISA and FACS analyses.

For assay [3], the target named is T3, human PD-1 (construct not stated) (human, UniProt Q15116 25-167, limits assumed).
T3 construct: also called PD-1 analyte
T3 sequence (Q15116 25-167 limits assumed): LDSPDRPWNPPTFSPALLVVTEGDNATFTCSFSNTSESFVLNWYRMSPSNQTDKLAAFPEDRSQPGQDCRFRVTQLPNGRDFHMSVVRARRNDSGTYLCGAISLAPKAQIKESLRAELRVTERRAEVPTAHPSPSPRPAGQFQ
The experiment in a line: Biacore (summary table; unit from Table 7). The procedure:
(§3) To further characterize the binding characteristics of the antibodies, 10 hybridoma antibodies were profiled using Biacore (Biacore 3000, GE) to elucidate binding kinetics and calculate equilibrium binding constants. This assay was performed by capture method, using the mouse antibody capture kit (BR-1008-38, GE). After diluting anti-mouse Fc mab to 25 μg/ml in pH 5.0 immobilization buffer, immobilization was conducted with the parameters shown in Table 6 at a flow rate of 5 μl/min. The kinetic runs were done by 1) injecting ligand for typical 0.5-1 min at flow rate of 10 μl/min.; 2) injecting analytes of choice for typical 3 min followed by dissociation in running buffer (1× PBS-P20) for typical 5-10 min at flow rate of 30 μl/min.; and 3) injecting regeneration solution 10 mM Glycine pH1.7 for typical 1-2 min at flow rate of 10 μl/min.
On the technique in general: Surface plasmon resonance follows binding to a sensor surface in real time, without labels.

For assay [4], the target named is T3, human PD-1 (construct not stated). The experiment in a line: Biacore, antibody captured, PD-1 analyte. As to the method: as §3
The target in assay [5] is T4, human PD-1 extracellular domain fused with mouse Fc (PD-1-mFc) (human, UniProt Q15116 25-170).
T4 construct: extracellular domain; not used because of the label; also called hPD-1-mFc; human PD-1-mouse Fc fusion protein
T4 sequence (Q15116 25-170): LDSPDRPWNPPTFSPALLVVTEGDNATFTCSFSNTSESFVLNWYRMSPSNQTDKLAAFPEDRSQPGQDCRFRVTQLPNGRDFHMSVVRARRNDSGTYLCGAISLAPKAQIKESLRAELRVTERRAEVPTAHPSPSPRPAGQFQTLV
The experiment in a line: blockage ELISA, competitor PDL-1-mFc-biotin (summary table; IC50 in ng/ml in Table 2). The procedure:
(§4) PD-1-mFc antigen (CrownBio) was suspended in PBS (Hyclone,Cat No:SH30256.01B) buffer (2 ug/ml, 100 ul/ well) and coated on the 96 well plate (costar, Cat No.:9018) 4° C. overnight. Plates were washed 3 times using washing buffer: PBS+0.05% Tween 20(Sigma, Cat No.:P1379). 200 ul of blocking buffer (PBS+1%BSA(Roche, Cat No.:738328)), was added to each well, incubated at 37° C. for 1 hour, and washed 3 times. Various concentrations (suitable dilutions of hybridoma supernatant in PBS) of the anti-PD-1 Abs were added to the wells (100 μl/well) and incubated at 37° C. for 1 hour. […] Secondary antibody (Avidin HRP eBioscience cat No.:E07418-1632, 1:500, 100 ul/well) was added, incubated at 37 ° C. for 0.5 hour, and washed 3 times. TMB (Sigma, Cat No.: T0440, 100 ul/well) was added, and incubated for 3 min at RT. To stop the reaction, 2N H2SO4 (100 ul/well), was added. The colorimetric signals were developed and read at 450 nm using a Auto Plate SpectraMax Plus (Supplier: Molecular Devices; Model: MNR0643; Software: SoftMax Pro v5.4).

Assay [6] deals with T4, human PD-1 extracellular domain fused …. The assay is described as follows: blockage ELISA, coated PD-1-mFc, competitor PDL-1-mFc-biotin. The procedure: as §4, §2
Assay [7] deals with T5, human PD-1 on cells (293T cells transfected with human PD-1) (human, UniProt Q15116 25-288).
T5 construct: whole, on cells; Also used as the target for the functional rows, where PD-1 stands on human T cells
T5 sequence (Q15116 25-288): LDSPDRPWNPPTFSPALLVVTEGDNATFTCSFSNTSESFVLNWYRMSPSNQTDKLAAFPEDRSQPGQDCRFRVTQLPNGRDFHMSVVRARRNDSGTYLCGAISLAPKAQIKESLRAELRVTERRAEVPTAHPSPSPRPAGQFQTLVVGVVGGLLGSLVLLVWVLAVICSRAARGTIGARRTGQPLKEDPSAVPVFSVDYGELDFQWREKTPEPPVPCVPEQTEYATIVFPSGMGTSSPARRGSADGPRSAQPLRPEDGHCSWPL
The experiment in a line: FACS blockage on hPD-1-293T cells, competitor biotin PD-L2. As to the method:
(§5) Various concentrations of the testing hybridoma antibodies were added to the cell suspension and incubated at 4° C. for 60 minutes in 96 well plates. […] Plates were washed 3 times, and mouse anti-biotin PE antibody (Biolgend, cat# 409004) was added. Flow cytometric analyses were performed using a FACS Array.
as §2

The target in assay [8] is T2, human PD-1 extracellular domain fused …. The assay is described as follows: ELISA on coated PD1-hFc. The procedure: as §1, §2
In general terms: An ELISA detects its analyte on a solid surface through an enzyme-linked reagent.

Assay [9] addresses human CD28 (human, UniProt P10747 19-152, limits assumed). The assay is described as follows: Interaction with CTLA4, ICOS CD28; assay not detailed.
Assay [10] addresses T6, human ICOS (human, UniProt Q9Y6W8 21-140, limits assumed).
T6 sequence (looked up): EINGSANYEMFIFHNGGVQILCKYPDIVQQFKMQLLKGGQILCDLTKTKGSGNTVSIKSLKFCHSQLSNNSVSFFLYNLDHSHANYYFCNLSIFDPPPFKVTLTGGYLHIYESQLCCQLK
Described as above.

Assay [11] has as its target T7, human CTLA4 (human, UniProt P16410 36-161, limits assumed).
T7 sequence (looked up): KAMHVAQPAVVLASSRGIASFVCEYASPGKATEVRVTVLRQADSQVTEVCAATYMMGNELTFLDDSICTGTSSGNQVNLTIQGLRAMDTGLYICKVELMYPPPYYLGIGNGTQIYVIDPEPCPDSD
Described as above.

For assay [12], the target named is T5, human PD-1 on cells (293T cells …). The assay is described as follows: FACS blockage on hPD-1-293T cells, competitor biotin PD-L1. As to the method:
as §5, §2

Assay [13] shares this target. The assay is described as follows: FACS on hPD-1-293T cells. The procedure: The cells were incubated with the indicated antibody (20 ug/ml with the dilution of ⅕) at 4° C. for 1 h. Cells were washed three times with FACS buffer. A secondary antibody (PE Goat anti-mouse: 1:200; PE mouse anti-human: 1:10) was added to the cells at 100 ul/well, and incubated at 4° C. for 40min. Cells were washed three times with FACS buffer and analyzed by FACS Array.
(§6) Freestyle 293 cells (200 mL at 10⁶/mL) were transfected with 100 μg of each of the chimeric heavy and light chain expression plasmids and cultured for 6 days. The chimeric antibody in the supernatant was then purified with Protein-G column (GE healthcare).

The target is the same in assay [14]. The experiment in a line: FACS blockage on hPD-1-293T cells, competitor biotin PD-L1. As to the method: as §5, §6
This is another data set of the same source.

Assay [15] addresses T2, human PD-1 extracellular domain fused …. The assay is described as follows: ELISA on coated PD1-hFc. As to the method: as §1, §6
The source holds these as a separate data set.

The target in assay [16] is T4, human PD-1 extracellular domain fused …. The assay is described as follows: blockage ELISA, coated PD-1-mFc, competitor PDL-1-mFc-biotin. As to the method: as §4, §6
The source holds these as a separate data set.

Sequence of human CD28 (P10747 19-152 limits assumed): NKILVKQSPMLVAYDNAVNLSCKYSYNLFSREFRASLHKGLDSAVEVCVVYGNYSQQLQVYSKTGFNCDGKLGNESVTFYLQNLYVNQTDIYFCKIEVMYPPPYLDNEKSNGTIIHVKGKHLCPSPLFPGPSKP
T2 sequence (chain, as listed by the source limits assumed): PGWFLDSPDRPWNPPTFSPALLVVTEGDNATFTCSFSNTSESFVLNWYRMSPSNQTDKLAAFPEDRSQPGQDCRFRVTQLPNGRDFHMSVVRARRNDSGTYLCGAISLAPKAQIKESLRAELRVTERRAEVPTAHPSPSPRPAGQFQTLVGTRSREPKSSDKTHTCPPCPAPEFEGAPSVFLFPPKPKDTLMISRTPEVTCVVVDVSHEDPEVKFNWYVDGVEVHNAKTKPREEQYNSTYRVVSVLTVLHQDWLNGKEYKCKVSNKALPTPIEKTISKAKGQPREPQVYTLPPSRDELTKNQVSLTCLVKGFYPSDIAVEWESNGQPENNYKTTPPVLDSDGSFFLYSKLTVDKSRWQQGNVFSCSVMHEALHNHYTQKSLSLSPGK

B1: 5A8 murine anti-PD-1 antibody (antibody, V domains shown)
VH: QVQLQQSGDELVRPGTSVKMSCKAAGYTFTNNWIGWVKQRPGHGLEWIGDFYPGGGYTNYNEKFKGKATLTADTSSSTAYMQLSSLTSEDSAIYYCARGYGTNYWYFDVWGAGTTVTVSS
VL: NIVMTQTPKILFISAGDRVTITCKASQSVSNDVAWYQQKPGQSPKLLIYYAFTRYIGVPDRFTGSGYGTDFTFTISTVQAEDLAVYFCQQDYSSPYTFGGGTKLEIKR
notes: Purified hybridoma antibody; also called 5A8-mIgG1
For the molecule B1, the binding result in assay [1], in assay [9], in [10] and in assay [11] was “no binding” each time. Further, the EC50 in assay [2] and in assay [8] was 0.0112 µg/mL in each case. For the same molecule, the Kd in assay [3] and in [4] was 0.0587 nM each time. In addition, the Ka in assay [4] came out at 1.7e+10 M⁻¹. Also, the koff (usually the first-order rate constant of dissociation) in [4] came to 7.55e-05 s⁻¹. Further, in assay [4], the kon (as a rule, the second-order rate constant of association) came out at 1.29e+06 M⁻¹ s⁻¹. In addition, the IC50 (in general, the concentration that gives 50% inhibition) in assay [5] came to 1.13 µg/mL; in assay [6] it was 1.13 µg/mL; in assay [7] it was 0.0188 µg/mL; in assay [12], 0.0282 µg/mL.

B2: 10D1 murine anti-PD-1 antibody (antibody, V domains shown)
VH: EVKLVESGGGLVKPGGSLKLSCAASGFTFSSYGMSWLRQTPEKRLEWVATMSGGGRDIYYPDSMKGRFTISRDNAKNNLYLQMSSLRSEDTALYYCARQYYDDWFAYWGQGTLVTVSA
VL: DIVLTQTPATLSVTPGDSVSLSCRASQSISNNLHWYQQKSHESPRLLIKYASQSISGIPSRFSGSGSGTDFTLNINSVETEDFGMYFCQQSNSWPLTFGAGTKLELKR
notes: Purified hybridoma antibody; also called 10D1-mIgG1
Turning to B2, the binding result in [1], in [9], in assay [10] and in assay [11] was “no binding” each time. Also, the EC50 in assay [2] and in [8] was 0.0172 µg/mL in each case. For the same molecule, the Kd in assay [3] and in assay [4] was 0.0623 nM throughout. In [4], this molecule came in with a Ka of 1.6e+10 M⁻¹. In [4], this molecule registered a koff of 5.24e-05 s⁻¹. The same molecule returned a kon in [4] of 840000 M⁻¹ s⁻¹. Besides, the IC50 is 1.41 µg/mL in [5], 1.41 µg/mL in assay [6], 0.15 µg/mL in assay [7] and 0.0369 µg/mL in assay [12].

B3: chimeric 6E1-hIgG4 (antibody, V domains shown)
VH: EVKLVESGGGLVKPGGSLKLSCAASGFTFSSYGMSWVRQTPEKRLEWVATISGGGRDTYYLDSVKGRFTISRDNAKNNLYLQMSSLRSEDTALYYCVRQYYDDWFAYWGQGTLVSNSA
VL: DIVLTQTPATLSVTPGDSVSLSCRASQSLSNNLHWYQQKSHESPRLLIKYASQSISGIPSRFSGSGSGTDFTLSINSVETEDFGMYFCQQSNSWPLTFGAGTKLEMKR
notes: Mouse variable regions with human IgG4 constant region
Consider B3, for which the EC50 (usually the concentration needed to bring the measured effect to its halfway point) in assay [13] came to 0.143 µg/mL; in assay [15] it was 0.0325 µg/mL. Further, the figures for the IC50 in assay [14] and in [16] were 0.054 µg/mL and 0.869 µg/mL, respectively.

B4: chimeric 7D3-hIgG4 (antibody, V domains shown)
VH: EVKLVESGGGLVKPGGSLKLSCGASGFTFSSYGMSWVRQTPEKRLEWVATISGGGRDIYYPDSVKGRLTISRDNAKNNLYLQMSSLRSEDTALYYCVRQYYDDWFAYWGQGTLVTVSA
VL: DIVLTQSPATLSVTPGDSVSLSCRASQSISNDLHWYQQKSHESPRLLIKYVSQSISGIPSRFSGSGSGTDFTLSINSVETEDFGMYFCQQSDSWPLTFGAGTKLELKR
notes: as for B3
Turning to B4, the EC50 in [13] stood at 0.131 µg/mL; in assay [15], 0.0517 µg/mL. The same molecule registered an IC50 in assay [16] of 0.948 µg/mL.

B5: 14A6 murine anti-PD-1 antibody (antibody, V domains shown)
VH: DVQLQESGPGLVKPSQSLSLTCTVTGYSITSDYAWNWIRQFPGNQLEWMAYISYSGYTSYNPSLKSRISITRDTSRNQFFLQLNSVTTEDTATYYCARSLDYDYGTMDYWGQGTSVTVSS
VL: QIVLSQSPAILSASPGEKVTMTCRANSSVSSMHWYQQKPGSSPEPWIYAISNLAFGVPARFSGSGSGTSYSLTISRVEAEDAATYFCQQWNSRPPTFGGGTKLEIKR
notes: Purified hybridoma antibody; also called 14A6-mIgG1
In the case of B5, the binding result in [1], in assay [9], in [10] and in assay [11] was “no binding” in each case. In addition, the EC50 in [2] and in assay [8] was 0.00707 µg/mL in each case. Further, the Kd in assay [3] and in assay [4] was 0.03 nM in each case. Besides, in [4], the Ka turned out to be 3.33e+10 M⁻¹. The molecule also registered a koff in [4] of 4.52e-05 s⁻¹. For the same molecule, the kon in assay [4] turned out to be 1.51e+06 M⁻¹ s⁻¹. For the same molecule, the IC50 in [5] was 0.923 µg/mL; in assay [6], 0.923 µg/mL; in [7] it was 0.092 µg/mL; in assay [12], 0.0211 µg/mL.

These data come from US20170267762A1 (APOLLOMICS, published 2017).
